T1: SUMO*-GFP (engineered SUMO 2F4, Smt3 R64T R71E, fused to GFP)
T1 chain: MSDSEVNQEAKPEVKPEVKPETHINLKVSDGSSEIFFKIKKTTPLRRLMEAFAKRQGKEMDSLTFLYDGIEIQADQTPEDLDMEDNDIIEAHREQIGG


How the values were obtained:
[1] = target: T1, SUMO*-GFP (engineered SUMO 2F4, Smt3 …)
[2] = target: SMT3-GFP (wild-type SUMO-GFP fusion) [SUMO: Q12306]
[3] = target: SUMO mutant 1A3 (R64Q), GFP fusion [SUMO: Q12306]
[4] = target: SUMO mutant 1C1 (R64L), GFP fusion [SUMO: Q12306]
[5] = target: SUMO mutant 2E11 (R64F; R71E), GFP fusion [SUMO: Q12306]
[6] = target: SUMO mutant 2E4 (R64T; R71E), GFP fusion [SUMO: Q12306]

Protein | % Cleavage of SUMO* tag [1] | in vitro cleavage, protease titration (SDS-PAGE) [2] | in vitro cleavage, protease titration (SDS-PAGE) [1] | also measured
ULP1 mutant 1.38 (residues 451-455: S T I I A) (protein) LVPELNEKDDDQVQKALASRENTQLMNRDNIEITVRDFKTLAPRRWLNSTIIAFFMKYIEKSTPNTVAFNSFFYTNLSERGYQGVRRWMKRKKTQIDKLDKIFTPINLNQSHWALGIIDLKKKTIGYVDSLSNGPNAMSFAILTDLQKYVMEESKHTIGEDFDLIHLDCPQQPNGYDCGIYVCMNTLYGSADAPLDFDYKDAIRMRRFIAHLILTDALK | 75% | – | – | –
ULP1 (wild-type SUMO protease 1) (protein) LVPELNEKDDDQVQKALASRENTQLMNRDNIEITVRDFKTLAPRRWLNDTIIEFFMKYIEKSTPNTVAFNSFFYTNLSERGYQGVRRWMKRKKTQIDKLDKIFTPINLNQSHWALGIIDLKKKTIGYVDSLSNGPNAMSFAILTDLQKYVMEESKHTIGEDFDLIHLDCPQQPNGYDCGIYVCMNTLYGSADAPLDFDYKDAIRMRRFIAHLILTDALK | 0% | ULP1 cleaves the SMT3 tag | ULP1 does not cleave SUMO* tag | % Cleavage with ULP1 [2]: 100%; in vitro cleavage (SDS-PAGE and anti-Smt3 Western blot) [2]: wild-type SUMO (Smt3) is cleaved by ULP1 and SENP2 (SUMO protease 1 and 2) in vitro; % Cleavage with ULP1 [3]: 10%; % Cleavage with ULP1 [4]: 10%; % Cleavage with ULP1 [5]: 0%; % Cleavage with ULP1 [6]: 0%; % Cleavage with ULP1 [1]: 0%; in vitro cleavage reaction [1]: Neither protease cleaved SUMO*; in vitro cleavage, protease titration [1]: incubated with increasing amounts of Ulp1 up to 1000 fold excess of the enzyme concentration required to fully cleave SUMO and still no cleavage was detected
ULP1 mutant 2.3 (residues 451-455: A M I I A) (protein) LVPELNEKDDDQVQKALASRENTQLMNRDNIEITVRDFKTLAPRRWLNAMIIAFFMKYIEKSTPNTVAFNSFFYTNLSERGYQGVRRWMKRKKTQIDKLDKIFTPINLNQSHWALGIIDLKKKTIGYVDSLSNGPNAMSFAILTDLQKYVMEESKHTIGEDFDLIHLDCPQQPNGYDCGIYVCMNTLYGSADAPLDFDYKDAIRMRRFIAHLILTDALK | 10% | – | – | –
ULP1 mutant 1.48 (residues 451-455: S T I I M) (protein) LVPELNEKDDDQVQKALASRENTQLMNRDNIEITVRDFKTLAPRRWLNSTIIMFFMKYIEKSTPNTVAFNSFFYTNLSERGYQGVRRWMKRKKTQIDKLDKIFTPINLNQSHWALGIIDLKKKTIGYVDSLSNGPNAMSFAILTDLQKYVMEESKHTIGEDFDLIHLDCPQQPNGYDCGIYVCMNTLYGSADAPLDFDYKDAIRMRRFIAHLILTDALK | 75% | – | – | –
SUMO* protease 1 (ULP1 mutant 2.2; D451S, T452G, E455S) (protein) MGLVPELNEKDDDQVQKALASRENTQLMNRDNIEITVRDFKTLAPRRWLNSGIISFFMKYIEKSTPNTVAFNSFFYTNLSERGYQGVRRWMKRKKTQIDKLDKIFTPINLNQSHWALGIIDLKKKTIGYVDSLSNGPNAMSFAILTDLQKYVMEESKHTIGEDFDLIHLDCPQQPNGYDCGIYVCMNTLYGSADAPLDFDYKDAIRMRRFIAHLILTDALKLEHHHHHH | 100% | SUMO* protease 1 cleaves wild type SUMO, but less efficiently than SUMO* | SUMO* protease 1 cleaves the SUMO* tag | –
